Laboratory results as given in article PMC4973471 (Nature structural & molecular biology, 2016).

Columns and labels:
HSF2 DBD = HSF2 DBD (Homo sapiens, UniProt Q03933 8-115); test: X-ray crystallography
crystal structure = target: the molecule itself; test: crystal structure

| Binder | binding result (HSF2 DBD) | binding result (crystal structure) |
| --- | --- | --- |
| 2-site HSE (dsDNA) DNA 1: GGTTCTAGAACC DNA 2: GGTTCTAGAACC | binds |  |
| human HSF2 DNA-binding domain (amino acids 8–115) (domain or fragment, UniProt Q03933 8-115, looked up) PAFLSKLWTLVEETHTNEFITWSQNGQSFLVLDEQRFAKEILPKYFKHNNMASFVRQLNMYGFRKVVHIDSGIVKQERDGPVEFQHPYFKQGQDDLLENIKRKVSSSK |  | binds |
